{"source": "patent US20220025037A1", "about": "(DRAGONFLY THERAPEUTICS, published 2022)", "molecules": {"B1": {"name": "humanized anti-DLL3 antibody h5E7 (antibody, V domains shown)", "VH": "QVQLVQSGAEVKKPGASVKVSCKASGFNIKDDYIHWVRQAPGQGLEWMGWIDSENGDTEYASKFQGRVTITADTSANTAYMELSSLRSEDTAVYYCATSSYYSYDLFVYWGQGTLVTVSS", "VL": "DVQMTQSPSSLSASVGDRVTITCKSSQSLLHSNGKTYLNWLQQKPGQAPKLLLYLVSKLESGVPSRFSGSGSGTDYTLTISSLQPEDFATYYCLQTTHLYTFGQGTKLEIK", "notes": "also called clone h5E7"}, "B2": {"name": "humanized anti-DLL3 antibody h5E7-YD-C6 (antibody, V domains shown)", "VH": "B1 VH with S100E", "VL": "B1 VL", "notes": "also called C6 variant"}, "B3": {"name": "humanized anti-DLL3 antibody h5E7-YD-F3 (antibody, V domains shown)", "VH": "B1 VH with Y102W, F107L", "VL": "B1 VL", "notes": "also called F3 variant"}, "B4": {"name": "murine anti-DLL3 antibody clone 5E7 (antibody, V domains shown)", "VH": "EVQLQQSGAELVRPGASVKLSCTASGFNIKDDYIHWVKQWPEQGLEWIGWIDSENGDTEYASKFQGKATMTADTSSNTAYLQLSGLTSEDTAVYYCTTSSYYSYDLFVYWGQGTLVTVSA", "VL": "DVLMTQTPLTLSVPIGQPASISCKSSQSLLHSNGKTYLNWLLQRPGQSPKLLIYLVSKLESGVPDRFSGSGSGTDFTLKISRVEAEDLGVYYCLQTTHLYTFGGGTKLEIK", "notes": "Mouse hybridoma antibody, captured by anti-mouse Fc; also called m5E7; murine 5E7"}}, "key": {"[1]": {"target": "recombinant human DLL3 (ELISA coat) (human) (UniProt Q9NYJ7)", "assay": "ELISA on coated recombinant human DLL3, anti-mouse IgG-HRP"}, "[2]": {"target": "T1, DLL3 on RPMI-8226 cells transduced to express the full-length extracellular portion of DLL3 (UniProt Q9NYJ7 27-492, limits assumed)", "T1 construct": "extracellular domain; also called DLL3+ RPMI-8226 cells; cell surface DLL3", "T1 sequence (looked up)": "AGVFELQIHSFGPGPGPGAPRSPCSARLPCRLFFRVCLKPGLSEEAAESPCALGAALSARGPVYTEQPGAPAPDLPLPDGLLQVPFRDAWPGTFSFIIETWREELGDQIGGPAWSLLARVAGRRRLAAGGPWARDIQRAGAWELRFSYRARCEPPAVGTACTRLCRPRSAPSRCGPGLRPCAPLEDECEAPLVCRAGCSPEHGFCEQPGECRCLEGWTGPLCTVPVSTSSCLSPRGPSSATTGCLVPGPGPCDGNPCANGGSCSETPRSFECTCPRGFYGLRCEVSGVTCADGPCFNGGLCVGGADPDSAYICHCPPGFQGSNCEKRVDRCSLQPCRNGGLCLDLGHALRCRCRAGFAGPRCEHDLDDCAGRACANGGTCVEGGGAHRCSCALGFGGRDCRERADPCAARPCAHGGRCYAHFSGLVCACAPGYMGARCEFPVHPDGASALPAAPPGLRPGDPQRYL", "assay": "flow cytometry on RPMI-8226 cells transduced to express DLL3, fluorophore-conjugated anti-human IgG secondary, MFI", "method": "To assess the binding of the mAbs to DLL3 positive cells, human myeloma cell line RPMI-8226 was transduced to express the full-length extracellular portion of DLL3. Anti-DLL3 mAbs were diluted and incubated with DLL3⁺ RPMI-8226 cells. The cells were analyzed by flow cytometry and binding of a mAb was detected using a fluorophore conjugated anti-human IgG secondary antibody."}, "human DLL3-His [3]": {"target": "T2, human DLL3-His (human, UniProt Q9NYJ7 27-492, limits assumed)", "T2 construct": "also called hDLL3", "T2 sequence (looked up)": "T1 sequence (looked up)", "assay": "SPR (Biacore 8K), 37 C, antibody captured on anti-human Fc, human DLL3-His injected, 1:1 fit", "source_text": "(§1) The kinetics of binding of different humanized variants and parental murine 5E7 antibody to human DLL3-His was studied by Surface Plasmon Resonance using a Biacore 8K instrument. Briefly, anti-hFc and anti-mFc IgG proteins were covalently immobilized onto different channels of CM5 chip to allow simultaneous analysis of human and murine antibodies. m5E7 was captured on the anti-mouse Fc channel and humanized variants were captured on the anti-human Fc channel at a desired capture level of ˜56 RU in HBS-EP+ buffer supplemented with 0.1% BSA. Three buffer blanks and human DLL3-His (analyte) at concentrations 0.411-300 nM (in three fold dilutions) were injected over the surface with captured murine or humanized 5E7 for 300 second association time and let dissociate for 600 second at a flow rate of 30 μL/min. The surfaces were subjected to regeneration with three 20-second pulses of 10 mM glycine pH 1.70 at a flow rate of 100 μL/min between every concentration of analyte. The experiment was conducted at 37° C. Data were double referenced and a 1:1 fit model was applied to the sensorgrams in the Biacore Insight Evaluation software.\n(§2) The kinetic parameters of human DLL3-His binding to murine and humanized variants of 5E7 antibody variants were calculated and shown in Table 12."}, "recombinant human DLL4": {"target": "T3, recombinant human DLL4 (human, UniProt Q9NR61 27-524, limits assumed)", "T3 construct": "Coated on plates at 0.5 µg/ml", "T3 sequence (Q9NR61 27-524 limits assumed)": "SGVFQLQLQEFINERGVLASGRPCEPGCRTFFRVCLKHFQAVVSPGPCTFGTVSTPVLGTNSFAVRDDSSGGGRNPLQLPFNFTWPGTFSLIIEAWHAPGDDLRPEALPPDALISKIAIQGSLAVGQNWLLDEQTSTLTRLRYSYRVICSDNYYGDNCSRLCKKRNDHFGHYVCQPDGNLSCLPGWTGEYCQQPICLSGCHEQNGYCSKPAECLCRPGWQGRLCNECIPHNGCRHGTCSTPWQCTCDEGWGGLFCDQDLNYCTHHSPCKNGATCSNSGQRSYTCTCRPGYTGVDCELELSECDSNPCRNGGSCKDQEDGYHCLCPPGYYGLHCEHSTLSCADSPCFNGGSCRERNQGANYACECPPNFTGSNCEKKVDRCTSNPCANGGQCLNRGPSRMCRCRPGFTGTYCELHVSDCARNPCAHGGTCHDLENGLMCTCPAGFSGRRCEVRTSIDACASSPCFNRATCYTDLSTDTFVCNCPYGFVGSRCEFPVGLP", "assay": "ELISA, plate coated with recombinant human DLL4 at 0.5 ug/ml, anti-mouse IgG-HRP/TMB, signal as % of positive control max", "method": "To investigate the binding of anti-DLL3 antibodies to human DLL3, wells of high binding flat-bottom plates were coated with recombinant human DLL3 diluted to 0.5 μg/ml. To assess cross-reactivity of the antibodies to DLL1/DLL4, which are closely related family members to DLL3, plates were coated with recombinant human DLL1 diluted to 1 μg/ml, or human DLL4 diluted to 0.5 μg/ml. […] Binding was detected using anti-mouse IgG-HRP and 3,3′,5,5′-Tetramethylbenzidine (TMB) substrate. Signals were normalized to the corresponding positive control antibody."}, "human DLL3-His [4]": {"target": "T2, human DLL3-His", "assay": "SPR (Biacore 8K), 37 C, antibody captured on anti-mouse Fc, human DLL3-His injected, 1:1 fit", "source_text": "as §1, §2"}}, "note": "Where a chain is given by its changes, count along the chain named.", "data": [{"molecule": "positive control antibody for DLL3 (R&D Systems-MAB4315)", "values": [{"measurement": "EC50", "setting": "[1]", "value": 0.1, "unit": "nM"}]}, {"molecule": "B1", "values": [{"measurement": "EC50 (read off the curve)", "setting": "[2]", "value": "~6", "unit": "nM"}, {"measurement": "Kd", "setting": "human DLL3-His [3]", "value": 8.7, "unit": "nM"}]}, {"molecule": "B2", "values": [{"measurement": "Kd", "setting": "human DLL3-His [3]", "value": 3.3, "unit": "nM"}]}, {"molecule": "B3", "values": [{"measurement": "Kd", "setting": "human DLL3-His [3]", "value": 1.2, "unit": "nM"}]}, {"molecule": "B4", "values": [{"measurement": "binding result", "setting": "recombinant human DLL4", "value": "binds"}, {"measurement": "Kd", "setting": "human DLL3-His [4]", "value": 1.2, "unit": "nM"}]}]}
